The term EC50 denotes the concentration needed to bring the measured effect to its halfway point.

The source of these data is patent publication US20210269521A1 (L AND L BIOPHARMA, published 2021).

In assay [1] the target is T1, human PD-1 extracellular domain protein expressed in Example 1 (tag not stated) (human, UniProt Q15116 25-170).
T1 construct: extracellular domain; also called PD-1 protein; not shown: human IgG1 Fc or his tag
The experiment in a line: ELISA, PD-1 coated. The method, then:
PD-1 expressed in Example 1 was diluted to a concentration of 1 μg/ml with PBS buffer, pH 7.4, and added to a 96-well microplate (Corning, CLS3590-100EA) at 50 μl per well, thereby incubating in an incubator at 37° C. for 2 hours. After discarding the liquid, a blocking solution of 5% skimmed milk (Shanghai Shenggong Biological Engineering Co., Ltd., A600669-0250) diluted with PBS was added at 200 μl per well, followed by incubating at 37° C. for 3 hours or 4° C. overnight (16-18 hours)) for blocking. Subsequently, the blocking solution was discarded, and the microplate was washed 5 times with PBST buffer (pH 7.4 PBS containing 0.05% tween-20). […] Subsequently, the microplate was washed 5 times with PBST, then 50 μl/well of 1:2500 diluted HRP-labeled secondary antibody (Jackson Immuno Research, 115-035-003) was added, thereby incubating at 37° C. for 1 hour. After washing the microplate 5 times with PBST, 50 μl/well TMB chromogenic substrate (KPL, 52-00-03) was added, then incubated at room temperature for 5-10 min. Finally, 50 μl/well of 1M H₂SO₄ was added to stop the reaction. […] Go microplate reader (ThermoFisher, 51119200) was used to read the absorption value at 450 nm and the EC50 based on the OD value was calculated.
(In general: An ELISA detects its analyte on a solid surface through an enzyme-linked reagent.)

The target in assay [2] is T2, human TIM-3 extracellular domain-human IgG1 Fc fusion protein (human, UniProt Q8TDQ0 22-199).
T2 construct: Made in house or bought (ACROBiosystems TM3-H5258); also called TIM-3-hFc; not shown: human IgG1 Fc
The experiment in a line: ELISA; pH 6.0, 0 day, against 0 day.

Assay [3] concerns the target T1, human PD-1 extracellular domain protein …. The experiment in a line: ELISA; pH 6.0, 0 day, against 0 day.
Assay [4] deals with T2, human TIM-3 extracellular domain-human …. The experiment in a line: ELISA; pH 5.5, 37°C 5 days, against 0 day.
Assay [5] addresses T1, human PD-1 extracellular domain protein …. In words: ELISA; pH 5.5, 37°C 5 days, against 0 day.
Assay [6] addresses T2, human TIM-3 extracellular domain-human …. The experiment in a line: ELISA; 15 mg/mL in PBS, 37°C 0 day (-80°C).
For assay [7], the target named is T1, human PD-1 extracellular domain protein …. The experiment in a line: ELISA; 15 mg/mL in PBS, 37°C 0 day (-80°C).
Assay [8] has as its target T2, human TIM-3 extracellular domain-human …. The experiment in a line: ELISA; PBS, 37°C 14 days (degraded sample).
Assay [9] concerns the target T1, human PD-1 extracellular domain protein …. The experiment in a line: ELISA; PBS, 37°C 14 days (degraded sample).
The target in assay [10] is T2, human TIM-3 extracellular domain-human …. In words: ELISA; pH 5.5, 37°C 10 days, against 0 day.
The target in assay [11] is T1, human PD-1 extracellular domain protein …. The experiment in a line: ELISA; pH 5.5, 37°C 10 days, against 0 day.
For assay [12], the target named is T2, human TIM-3 extracellular domain-human …. In words: ELISA; 15 mg/mL, His buffer pH 6.0, 37°C 0 day (-80°C).
For assay [13], the target named is T1, human PD-1 extracellular domain protein …. Described as above.
In assay [14] the target is T2, human TIM-3 extracellular domain-human …. The experiment in a line: ELISA; 28.5 mg/mL, His buffer pH 5.5, 37°C 0 day (-80°C).
Assay [15] addresses T1, human PD-1 extracellular domain protein …. Described as above.

B1: bispecific antibody LB141 (bispecific antibody, human IgG4 S228P, kappa)
light: EIVLTQSPATLSLSPGERATLSCRASKGVSTSGYSYLHWYQQKPGQAPRLLIYLASYLESGVPARFSGSGSGTDFTLTISSLEPEDFAVYYCQHSRDLPLTFGGGTKVEIKRTVAAPSVFIFPPSDEQLKSGTASVVCLLNNFYPREAKVQWKVDNALQSGNSQESVTEQDSKDSTYSLSSTLTLSKADYEKHKVYACEVTHQGLSSPVTKSFNRGEC
heavy: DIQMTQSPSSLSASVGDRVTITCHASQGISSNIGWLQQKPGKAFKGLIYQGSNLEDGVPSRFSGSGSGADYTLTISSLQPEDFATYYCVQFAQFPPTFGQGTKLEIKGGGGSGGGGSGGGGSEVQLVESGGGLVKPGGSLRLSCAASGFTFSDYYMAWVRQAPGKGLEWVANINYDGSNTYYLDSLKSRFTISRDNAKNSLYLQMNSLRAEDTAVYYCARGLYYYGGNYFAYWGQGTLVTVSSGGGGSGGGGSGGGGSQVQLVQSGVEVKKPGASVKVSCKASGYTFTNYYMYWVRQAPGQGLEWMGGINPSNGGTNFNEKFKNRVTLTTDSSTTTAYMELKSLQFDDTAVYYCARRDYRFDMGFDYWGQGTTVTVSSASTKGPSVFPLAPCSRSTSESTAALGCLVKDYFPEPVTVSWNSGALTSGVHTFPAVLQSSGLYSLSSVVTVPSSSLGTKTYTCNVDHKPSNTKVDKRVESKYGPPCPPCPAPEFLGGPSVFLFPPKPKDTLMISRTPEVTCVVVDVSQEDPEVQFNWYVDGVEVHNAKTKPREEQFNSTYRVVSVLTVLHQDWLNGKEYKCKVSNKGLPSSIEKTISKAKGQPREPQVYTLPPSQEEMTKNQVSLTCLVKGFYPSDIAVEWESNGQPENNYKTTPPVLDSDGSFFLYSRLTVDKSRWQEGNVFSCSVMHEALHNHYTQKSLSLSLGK
notes: ab6VL-(G4S)3-ab6VH-(G4S)3-PemVH-hIgG4 with PemVL-κ
Turning to B1, the concentration giving a half-maximal response (EC50) in assay [1] is 0.127 nM; in [6] it was 0.253 nM; in assay [7] it was 0.293 nM; in assay [8], 0.685 nM; in assay [9], 0.4 nM; in assay [12], 0.164 nM. The half-maximal effective concentration (EC50) worked out at 0.146 nM in assay [13], 0.36 nM in [14] and 0.181 nM in [15]. The “Fold change of EC50” value in assay [2] was determined as 1 ratio; in assay [3] it was 1 ratio; in assay [4], 0.93 ratio; in assay [5] it was 1.2 ratio; in assay [10] it was 0.85 ratio; in [11] it was 1.1 ratio.
